# Assay results as given in patent US20050042208A1.
# Biological target: CD44 existing on the cell surface of CTLs (human) (UniProt P16070)
# Experiment: cell-based or functional assay
# UniProt P16070, sequence (P16070 21-742): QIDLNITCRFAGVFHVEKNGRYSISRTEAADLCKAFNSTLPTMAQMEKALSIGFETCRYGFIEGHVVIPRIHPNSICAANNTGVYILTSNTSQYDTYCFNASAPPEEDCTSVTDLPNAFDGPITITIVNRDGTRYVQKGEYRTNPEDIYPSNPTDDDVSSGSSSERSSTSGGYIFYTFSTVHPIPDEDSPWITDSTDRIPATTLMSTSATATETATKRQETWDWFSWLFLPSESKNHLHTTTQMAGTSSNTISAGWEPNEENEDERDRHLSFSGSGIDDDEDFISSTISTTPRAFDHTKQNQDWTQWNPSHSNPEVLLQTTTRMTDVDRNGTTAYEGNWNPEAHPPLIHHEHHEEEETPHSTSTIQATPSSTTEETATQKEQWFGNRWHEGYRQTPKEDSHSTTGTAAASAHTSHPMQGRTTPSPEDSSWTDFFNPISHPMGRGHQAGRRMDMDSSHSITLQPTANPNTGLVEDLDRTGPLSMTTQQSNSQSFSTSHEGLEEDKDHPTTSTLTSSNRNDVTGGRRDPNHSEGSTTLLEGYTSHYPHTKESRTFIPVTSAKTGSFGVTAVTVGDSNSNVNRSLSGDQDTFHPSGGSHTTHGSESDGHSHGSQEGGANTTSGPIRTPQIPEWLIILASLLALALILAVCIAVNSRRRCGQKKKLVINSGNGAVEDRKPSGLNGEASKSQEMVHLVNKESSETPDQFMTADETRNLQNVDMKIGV
substance,measurement,value
"anti-CD44 antibody (hyaluronic acid-bound Non-blocking antibody; HA Non-blocking Anti-CD44 Antibody), monoclonal, manufactured by Ancell","Cytotoxic Activity (%), E/T Ratio 3, peptide pulse +, after expansion with antibody",32.4%
same,"Cytotoxic Activity (%), E/T Ratio 3, peptide pulse -, after expansion with antibody",10.3%
same,"Cytotoxic Activity (%), E/T Ratio 10, peptide pulse +, after expansion with antibody",60.1%
same,"Cytotoxic Activity (%), E/T Ratio 10, peptide pulse -, after expansion with antibody",14.2%
same,"Cytotoxic Activity (%), E/T Ratio 30, peptide pulse +, after expansion with antibody",105%
same,"Cytotoxic Activity (%), E/T Ratio 30, peptide pulse -, after expansion with antibody",21.2%
